Entries after “also recorded” stand apart in the source; their conditions may differ. Bridges are numbered along the chain shown (N, C = ends). Where no end group is shown, it is not given here. [ ]: non-standard residue; d: D form. The star is where a group is joined. Biotin = O=C1N[C@H]2[C@H](CS[C@H]2CCCCC(=O)*)N1; R8 = C=CCCCCCC[C@@](C)(N)C(=O)O; S5 = C=CCCC[C@](C)(N)C(=O)O
What was measured:
[1] = system: OCI-AML2 cells; assay: LDH release assay, OCI-AML2; format: cell-based; settings: OCI-AML2, 90 minutes after peptide treatment, highest dosing level
Method: (§1) LDH release assay: To assess the release of lactate dehydrogenase (LDH) upon treatment with a structurally-stabilized peptide described herein, an LDH release assay can be used. Cultured cells, including, e.g., cancer cells and HUVEC cells, are plated in 96-well format (2x10^4 cells per well; including overnight incubation for adherent cells) and then treated with serial dilutions of structurally-stabilized peptides in a final volume of 100 µL and incubated at 37° C. for the indicated time period (e.g., 90 minutes). The plates are spun down at 1500 rpm for 5 minutes at 4° C., and 80 µL of cell culture media is transferred to a clear plate (Corning), incubated with 80 µL of LDH reagent (Roche) for 15 minutes while shaking, and absorbance is measured at 490 nm on a microplate reader (SpectraMax M5 Microplate Reader, Molecular Devices).
(§2) LDHRelease Assay: OCI-AML2 cells (1 × 10^4 cells/well) were plated in 96-well plates and treated with the indicated peptides or vehicle (0.2% DMSO). After 1.5 hours incubation at 37° C., 100 µl of cell medium was transferred to a 96-well clear plate and incubated with 100 µl of LDH reagent (Roche) for 25 minutes while shaking, and absorbance at 490 nm measured on a microplate reader (SpectraMax M5 Microplate Reader, Molecular Devices).

[2] = system: EOL-1 cells; assay: LDH release assay, EOL-1; format: cell-based; settings: EOL-1, 90 minutes after peptide treatment, highest dosing level
Method: as §1, §2

[3] = target: T1, recombinant HDMX (amino acids 1-490 of SEQ ID NO:104) (Homo sapiens, UniProt O15151); assay: Competitive streptavidin pull-down of biotinylated peptides with 1:1 recombinant HDM2/HDMX mixture, HDMX western; format: binding; settings: biotinylated stapled peptide, 1:1 mixture of recombinant HDM2 and HDMX
T1 construct: thioredoxin (N, cleaved yes); S tag (N, cleaved yes); hexahistidine (N, cleaved yes); made in house; host or cells: E. coli (inferred: pET32-LIC vector, handled as described for HDM2 in BL21(DE3))
T1 sequence (O15151 1-490): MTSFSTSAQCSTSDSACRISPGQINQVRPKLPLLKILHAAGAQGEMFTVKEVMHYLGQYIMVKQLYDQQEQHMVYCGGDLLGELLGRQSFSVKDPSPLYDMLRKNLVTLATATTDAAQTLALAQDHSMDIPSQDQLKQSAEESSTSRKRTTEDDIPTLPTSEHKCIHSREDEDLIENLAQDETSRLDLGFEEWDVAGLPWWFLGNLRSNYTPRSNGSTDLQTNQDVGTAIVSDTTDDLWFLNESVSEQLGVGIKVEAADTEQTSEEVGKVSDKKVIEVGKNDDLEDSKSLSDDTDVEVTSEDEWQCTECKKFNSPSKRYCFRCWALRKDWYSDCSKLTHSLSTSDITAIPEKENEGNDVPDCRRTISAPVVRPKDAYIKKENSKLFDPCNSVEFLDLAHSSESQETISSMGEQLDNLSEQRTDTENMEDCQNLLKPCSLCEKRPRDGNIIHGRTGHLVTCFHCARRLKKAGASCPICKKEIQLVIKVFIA

[4] = target: T2, recombinant HDM2 (amino acids 17-125 of SEQ ID NO:103) (Homo sapiens, UniProt Q00987); assay: Competitive streptavidin pull-down of biotinylated peptides with 1:1 recombinant HDM2/HDMX mixture, HDM2 western; format: binding; settings: biotinylated stapled peptide, 1:1 mixture of recombinant HDM2 and HDMX
T2 construct: hexahistidine (N); thrombin cleavage site (N); made in house; host or cells: BL21(DE3) E. coli
Method: For these studies, biotinylated peptides were incubated with a 1:1 mixture of recombinant HDM2 (amino acids 17-125 of SEQ ID NO: 103) and HDMX (amino acids 1-490 of SEQ ID NO: 104), followed by streptavidin pull-down and HDM2 and HDMX Western analyses. […] .

[5] = target: T3, native HDMX (Homo sapiens, UniProt O15151); assay: Streptavidin pull-down from cancer cell lysates, HDMX western; format: binding
T3 construct: high fidelity selectivity for native HDMX from cells; endogenous in cells; host or cells: EOL-1 and OCI-AML2 lysates (endogenous); SJSA-X lysates (cells engineered to express HDMX)
T3 sequence (O15151 1-490): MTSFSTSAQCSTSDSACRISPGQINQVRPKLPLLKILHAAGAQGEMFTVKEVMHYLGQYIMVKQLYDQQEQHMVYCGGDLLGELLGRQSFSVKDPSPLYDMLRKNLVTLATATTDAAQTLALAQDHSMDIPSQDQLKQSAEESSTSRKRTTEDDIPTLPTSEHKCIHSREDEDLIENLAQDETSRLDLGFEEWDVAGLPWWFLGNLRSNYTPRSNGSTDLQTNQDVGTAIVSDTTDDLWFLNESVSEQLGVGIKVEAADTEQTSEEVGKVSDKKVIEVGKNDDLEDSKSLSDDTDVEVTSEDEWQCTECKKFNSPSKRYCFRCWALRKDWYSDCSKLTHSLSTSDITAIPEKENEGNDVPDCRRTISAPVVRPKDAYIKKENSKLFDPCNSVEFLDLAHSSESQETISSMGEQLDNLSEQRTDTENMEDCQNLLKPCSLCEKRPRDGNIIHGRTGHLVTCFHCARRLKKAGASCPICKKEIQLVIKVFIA
Method: (§3) In order to determine if the insights gleaned from the biochemical and structural analyses (Examples 1 and 2, above) informed the development of a stapled p53 peptide with high fidelity selectivity for native HDMX from cells, binding assays were performed using cellular lysates from both hematologic (FIG. 16A) and solid (FIG. 16B) cancers.
(§4) Streptavidin Pull-Down - Cell Lysates: Cultured cells were trypsinized, washed once with cold PBS, and lysed on ice for 30 minutes in lysis buffer (0.5% NP-40, 150 mM NaCl, 50 mM Tris pH 7.4). Protein concentration of the isolated supernatant was determined by Bradford reagent. Lysate samples (2 mg) were incubated with vehicle (0.6% DMSO) or biotinylated peptides (15 nmole) overnight in lysis buffer at 4° C. […] Bead-bound proteins were eluted by addition of 50 µl 2x LDS supplemented with DTT and boiling for 10 minutes. Eluted proteins were then subjected to electrophoresis and western blotting using HDM2 (IF2, EMD Millipore, 1:200) and MDM4 (A300-287A; Bethyl Laboratories, 1:1000) antibodies.

[6] = target: T4, native HDM2 (Homo sapiens, UniProt Q00987); assay: Streptavidin pull-down from cancer cell lysates, HDM2 western; format: binding
T4 construct: in the context of the native proteins from cancer cell lysates; endogenous in cells; host or cells: EOL-1, OCI-AML2, SJSA-X cell lysates
Method: as §3, §4

[7] = system: wild-type, Y99F, and Y99A HDMX (full-length); assay: Streptavidin pull-down with wild-type, Y99F and Y99A HDMX proteins; settings: biotinylated peptide, full-length HDMX proteins incubated individually, HDMX western
[8] = target: T5, recombinant HDM2 (amino acids 17-125 of SEQ ID NO:103) (human, UniProt Q00987 17-125); assay: isothermal titration calorimetry, peptide titrated into HDM2
T5 construct: also called MDM2; not shown: thrombin cleavage site (pET28a vector)

[9] = target: T5, recombinant HDM2 (amino acids 17-125 of …); assay: fluorescence polarization, FITC-labelled peptide titrated with HDM2
[10] = target: T5, recombinant HDM2 (amino acids 17-125 of …); assay: isothermal titration calorimetry, peptide titrated into HDM2; remark: listed apart in the source
[11] = EOL-1, OCI-AML2, and SJSA-X cancer cell lysates
[12] = EOL-1 and OCI-AML2 leukemia cell lysates, biotinylated peptide
[13] = SJSA-X osteosarcoma cell lysates, biotinylated peptide

CC(=O)N[C@@H](CC(C)C)C(=O)N[C@H](C(=O)N[C@@H](Cc1ccccc1)C(=O)N[C@]1(C)CCCCCCC=CCCC[C@@](C)(C(=O)N[C@@H](CO)C(=O)N[C@@H](C)C(=O)N[C@@H](C)C(N)=O)NC(=O)[C@H](CCC(=O)O)NC(=O)[C@H](CCC(N)=O)NC(=O)[C@H](C)NC(=O)[C@H](Cc2c[nH]c3ccccc23)NC(=O)[C@H](Cc2ccc(O)cc2)NC(=O)[C@H](CCC(=O)O)NC1=O)[C@@H](C)O [ATSP-7041 B26E, LTF8EYWAQEXSAA]
non-specific membrane disruption (LDH release) [1]: no non-specific membrane disruptive activity
non-specific membrane disruption (LDH release) [2]: no non-specific membrane disruptive activity

ATSP-7041 B26A (Biotin-LTF[R8]EYWAQA[S5]SAA-NH2; staple 4-11; SMILES CC(C)C[C@H](NC(=O)CCCC[C@@H]1SC[C@@H]2NC(=O)N[C@@H]21)C(=O)N[C@H](C(=O)N[C@@H](Cc1ccccc1)C(=O)N[C@]1(C)CCCCCCC=CCCC[C@@](C)(C(=O)N[C@@H](CO)C(=O)N[C@@H](C)C(=O)N[C@@H](C)C(N)=O)NC(=O)[C@H](C)NC(=O)[C@H](CCC(N)=O)NC(=O)[C@H](C)NC(=O)[C@H](Cc2c[nH]c3ccccc23)NC(=O)[C@H](Cc2ccc(O)cc2)NC(=O)[C@H](CCC(=O)O)NC1=O)[C@@H](C)O)
HDMX interaction [3]: engage HDMX with greatest affinity
HDMX versus HDM2 binding selectivity [3]: HDMX selectivity over HDM2; also recorded: most HDMX-specific
HDM2 interaction [4]: essentially abrogate HDM2 interaction

ATSP-7041 B26I (Biotin-LTF[R8]EYWAQI[S5]SAA-NH2; staple 4-11; SMILES CC[C@H](C)[C@@H]1NC(=O)[C@H](CCC(N)=O)NC(=O)[C@H](C)NC(=O)[C@H](Cc2c[nH]c3ccccc23)NC(=O)[C@H](Cc2ccc(O)cc2)NC(=O)[C@H](CCC(=O)O)NC(=O)[C@](C)(NC(=O)[C@H](Cc2ccccc2)NC(=O)[C@@H](NC(=O)[C@H](CC(C)C)NC(=O)CCCC[C@@H]2SC[C@@H]3NC(=O)N[C@@H]32)[C@@H](C)O)CCCCCCC=CCCC[C@@](C)(C(=O)N[C@@H](CO)C(=O)N[C@@H](C)C(=O)N[C@@H](C)C(N)=O)NC1=O)
HDMX versus HDM2 binding selectivity [3]: dual HDM2/HDXM-targeting activity
HDMX versus HDM2 binding selectivity ([3]; listed as SEQ ID NO:63): dual-selectivity to HDMX and HDM2
HDM2 interaction [4]: restored HDM2 binding and bind

ATSP-7041 B26L
HDMX versus HDM2 binding selectivity [3]: dual HDM2/HDXM-targeting activity
HDMX versus HDM2 binding selectivity ([3]; listed as SEQ ID NO:65): dual-selectivity to HDMX and HDM2
HDM2 interaction [4]: restored HDM2 binding and bind

ATSP-7041 B26R (Biotin-LTF[R8]EYWAQR[S5]SAA-NH2; staple 4-11; SMILES CC(C)C[C@H](NC(=O)CCCC[C@@H]1SC[C@@H]2NC(=O)N[C@@H]21)C(=O)N[C@H](C(=O)N[C@@H](Cc1ccccc1)C(=O)N[C@]1(C)CCCCCCC=CCCC[C@@](C)(C(=O)N[C@@H](CO)C(=O)N[C@@H](C)C(=O)N[C@@H](C)C(N)=O)NC(=O)[C@H](CCCNC(=N)N)NC(=O)[C@H](CCC(N)=O)NC(=O)[C@H](C)NC(=O)[C@H](Cc2c[nH]c3ccccc23)NC(=O)[C@H](Cc2ccc(O)cc2)NC(=O)[C@H](CCC(=O)O)NC1=O)[C@@H](C)O)
HDMX interaction [3]: engage HDMX with greatest affinity
HDMX versus HDM2 binding selectivity [3]: HDMX selectivity over HDM2; also recorded: most HDMX-specific
HDM2 interaction [4]: essentially abrogate HDM2 interaction

QSQQTF8NLWRLEXQN (QSQQTF[R8]NLWRLE[S5]QN; staple 7-14) [SAH-p53-8 L26E]
HDMX interaction [3]: robust HDMX-binding activity
HDMX versus HDM2 binding selectivity [3]: exquisite binding selectivity for HDMX; also recorded: HDMX-selective
native HDMX binding [5, 11]: preserved
native HDMX binding [5, 12]: selective interaction with HDMX
native HDMX binding [5, 13]: predominant HDMX interaction
native HDM2 binding [6, 11]: markedly impaired or abrogated
native HDM2 binding [6, 12]: abrogates HDM2 binding
native HDM2 binding [6, 13]: impairs HDM2 interaction
interaction with Y99F and Y99A HDMX [7]: significantly impaired; also recorded: markedly impair interaction

QSQQTF8NLWRLLXQN [SAH-p53-8, reference compound]
HDMX versus HDM2 binding selectivity [3]: dual-targeting HDM2/HDMX
native HDMX binding [5, 11]: effectively engaged
native HDMX binding [5, 12]: binds
native HDMX binding [5, 13]: binds
native HDM2 binding [6, 11]: effectively engaged
native HDM2 binding [6, 12]: binds
native HDM2 binding [6, 13]: binds
interaction with Y99F and Y99A HDMX [7]: retained interaction; also recorded: effectively bind

SAH-p53-4 K24E/E28A: Formula (I) stapled peptide: [Xaa]w LSQETF, [Xaa]x DLWELL, [Xaa]y AN (LSQETF[R8]DLWELL[S5]AN-NH2; staple 7-14; not fully specified (N-terminus))
HDMX interaction [3]: HDMX binding
HDMX versus HDM2 binding selectivity [3]: restored dual HDM2/HDMX interaction
HDMX versus HDM2 binding selectivity ([3]; listed as SEQ ID NO:47): selectivity to HDM2
HDM2 interaction [4]: especially robust HDM2 interaction

B1: SAH-p53-4 (peptide)
peptide: LSQETF[R8]DLWKLL[S5]EN
modifications: staple 7-14; also: N-terminus biotin, acetyl or FITC depending on assay
notes: One entry for the peptide; also called wild-type SAH-p53-4; LSQETF8DLWKLLXEN
Kd [8]: 20.4 nM
Kd [9]: 12 nM

B2: SAH-p53-4 L26E (peptide)
peptide: LSQETF[R8]DLWKLE[S5]EN
modifications: staple 7-14; also: N-terminus biotin, acetyl or FITC depending on assay
Kd [10]: 256 nM
Kd [9]: 149 nM

Source: patent US20230192789A1, “STRUCTURALLY-STABILIZED AND HDMX-SELECTIVE P53 PEPTIDES AND USES THEREOF” (Dana-Farber Cancer Institute, Inc., priority 2020, published 2023)
